# Assay results taken from paper PMC9860126, “Mechanistic insights into the nickel-dependent allosteric response of the Helicobacter pylori NikR transcription factor”.
# Substitutions are numbered along the chain they refer to.
# T1: HpNikR WT (Helicobacter pylori G27 (from vector …, UniProt A1YSQ9 1-148))
# T1 sequence: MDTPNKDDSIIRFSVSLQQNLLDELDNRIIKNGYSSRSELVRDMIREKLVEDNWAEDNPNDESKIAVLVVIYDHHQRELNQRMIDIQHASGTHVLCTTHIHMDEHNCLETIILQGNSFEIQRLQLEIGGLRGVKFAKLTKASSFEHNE
# B1: ureA promoter 32 bp (FA) (dsDNA)
# DNA 1: ATATAACACTAATTCATTTTAAATAATAATTA
# DNA 2: TAATTATTATTTAAAATGAATTAGTGTTATAT
# B2: ureA-perf promoter 32 bp (dsDNA)
# DNA 1: B1 DNA 1 with A6T, C7T, C9T
# DNA 2: B1 DNA 2 with G24A, G26A, T27A
# How the values were obtained:
# HpNikR K140A = HpNikR K140A (Helicobacter pylori G27, UniProt A1YSQ9 1-148, K140A); experiment: fluorescence anisotropy; Ni(II)-bound; FA: 5 nM DNA, 20 mM Tris pH 7.6, 100 mM NaCl, 3 mM MgSO4, temperature not stated (Ni loading 1.2 eq NiSO4 per monomer at RT). EMSA: 20 mM Tris pH 7.5, 100 mM KCl, 3 mM MgCl2, 0.1% IGEPAL, 5% glycerol, 0.1 mg/ml herring sperm DNA, RT; gel with 800 uM NiSO4 at 4 C; conditions: protein: recombinant; tags: none stated; chain copies: 4; label: fluorescein on internal thymine (T14 of strand 1); blunt
# HpNikR K64A = HpNikR K64A (Helicobacter pylori G27, UniProt A1YSQ9 1-148, K64A); experiment: as above; conditions: protein: recombinant; tags: none stated; chain copies: 4; label: fluorescein on internal thymine (T14 of strand 1); blunt
# HpNikR WT = target: T1, HpNikR WT; experiment: fluorescence anisotropy; apo (no Ni); FA: 5 nM DNA, 20 mM Tris pH 7.6, 100 mM NaCl, 3 mM MgSO4, temperature not stated (Ni loading 1.2 eq NiSO4 per monomer at RT). EMSA: 20 mM Tris pH 7.5, 100 mM KCl, 3 mM MgCl2, 0.1% IGEPAL, 5% glycerol, 0.1 mg/ml herring sperm DNA, RT; gel with 800 uM NiSO4 at 4 C; conditions: protein: recombinant; tags: none stated (untagged purification); chain copies: 4; label: fluorescein on internal thymine (T14 of strand 1); blunt
# HpNikR W54A = HpNikR W54A (Helicobacter pylori G27, UniProt A1YSQ9 1-148, W54A); experiment: as above; conditions: protein: recombinant; tags: none stated; chain copies: 4; label: fluorescein on internal thymine (T14 of strand 1); blunt
# HpNikR K31A = HpNikR K31A (Helicobacter pylori G27, UniProt A1YSQ9 1-148, K31A); experiment: as above; conditions: protein: recombinant; tags: none stated; chain copies: 4; label: fluorescein on internal thymine (T14 of strand 1); blunt
# HpNikR E56A = HpNikR E56A (Helicobacter pylori G27, UniProt A1YSQ9 1-148, E56A); experiment: as above; conditions: protein: recombinant; tags: none stated; chain copies: 4; label: fluorescein on internal thymine (T14 of strand 1); blunt
# HpNikR K134A = HpNikR K134A (Helicobacter pylori G27, UniProt A1YSQ9 1-148, K134A); experiment: as above; conditions: protein: recombinant; tags: none stated; chain copies: 4; label: fluorescein on internal thymine (T14 of strand 1); blunt
# HpNikR Q81A = HpNikR Q81A (Helicobacter pylori G27, UniProt A1YSQ9 1-148, Q81A); experiment: as above; conditions: protein: recombinant; tags: none stated; chain copies: 4; label: fluorescein on internal thymine (T14 of strand 1); blunt
# HpNikR K48A = HpNikR K48A (Helicobacter pylori G27, UniProt A1YSQ9 1-148, K48A); experiment: as above; conditions: protein: recombinant; tags: none stated; chain copies: 4; label: fluorescein on internal thymine (T14 of strand 1); blunt
# HpNikR T92A = HpNikR T92A (Helicobacter pylori G27, UniProt A1YSQ9 1-148, T92A); experiment: as above; conditions: protein: recombinant; tags: none stated; chain copies: 4; label: fluorescein on internal thymine (T14 of strand 1); blunt
Binder,Kd (HpNikR K140A) [nM],Kd (HpNikR K64A) [nM],Kd (HpNikR WT) [nM],Kd (HpNikR W54A) [nM],Kd (HpNikR K31A) [nM],Kd (HpNikR E56A) [nM],Kd (HpNikR K134A) [nM],Kd (HpNikR Q81A) [nM],binding result (HpNikR K48A),Kd (HpNikR T92A) [nM]
B1,63 ± 5.6,22 ± 2.2,4900 ± 1700,6100 ± 1000,2300 ± 500,1800 ± 300,1700 ± 700,2000 ± 500,no binding,2200 ± 200
B2,,,4100 ± 1100,3700 ± 200,1300 ± 200,1200 ± 100,1000 ± 300,1600 ± 600,no binding,2500 ± 400
